Where no end group is shown, it is not given here. Me3 = N6,N6,N6-trimethyl (lysine)

Test [1] deals with T1, 15N-labeled ZZZ3-ZZ F821A used in NMR titrations (human).
T1 chain: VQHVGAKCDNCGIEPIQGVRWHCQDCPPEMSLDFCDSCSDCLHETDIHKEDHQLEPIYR
Kind of test: NMR.

In test [2] the target is T2, 15N-labeled WT ZZZ3-ZZ used in NMR titrations (human).
T2 chain: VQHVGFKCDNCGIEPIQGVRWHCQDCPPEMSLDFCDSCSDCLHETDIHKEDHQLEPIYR
Kind of test: NMR.

The target of a further test is T3, H3K4me3 (1-12) peptide (Homo sapiens).
T3 chain: H-ARTK(Me3)QTARKSTG
Description: tryptophan fluorescence.

B1: unmodified H3 peptide of the tryptophan fluorescence and NMR titration experiments (peptide)
chain: ARTKQTARKSTG
The term Kd denotes a measure of binding affinity in units of concentration. Low readings indicate tighter binding, high ones weaker binding. Regarding B1, the results for the equilibrium dissociation constant (Kd) in test [1] and in test [2] were 400 µM and 42 µM, respectively.

B2: H3K4ac peptide of the tryptophan fluorescence and NMR titration experiments (peptide)
chain: ARTK(Ac)QTAR
With B2, the Kd in test [1] was found to be 480 µM; in test [2], 14 µM.

B3: ZZZ3 ZZ domain (aa 800–903), GST cleaved (domain or fragment)
chain: KLKKQKLQQMQAESGFVQHVGFKCDNCGIEPIQGVRWHCQDCPPEMSLDFCDSCSDCLHETDIHKEDHQLEPIYRSETFLDRDYCVSQGTSYNYLDPNYFPANR
Consider B3, for which, in the test with H3K4me3 (1-12) peptide, the Kd was 22 µM.
